{"source": "patent US20180296689A1", "key": {"[1]": {"target": "Human neonatal receptor (FcRn) (human) (UniProt P55899)", "sequence (P55899 24-297 limits assumed)": "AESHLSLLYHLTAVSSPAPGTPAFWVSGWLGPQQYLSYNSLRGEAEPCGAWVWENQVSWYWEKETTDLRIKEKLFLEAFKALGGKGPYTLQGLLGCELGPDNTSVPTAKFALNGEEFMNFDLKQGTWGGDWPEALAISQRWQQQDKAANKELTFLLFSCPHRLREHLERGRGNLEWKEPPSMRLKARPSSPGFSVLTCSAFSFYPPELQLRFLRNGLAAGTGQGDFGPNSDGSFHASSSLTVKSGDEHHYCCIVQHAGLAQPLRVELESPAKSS", "experiment": "SPR (BIACore), low density FcRn biosensor chip, three runs of five dilutions"}, "[2]": {"target": "TROP-2 (EGP-1), human, on tumor cell lines (human) (UniProt P09758)", "sequence (P09758 27-323)": "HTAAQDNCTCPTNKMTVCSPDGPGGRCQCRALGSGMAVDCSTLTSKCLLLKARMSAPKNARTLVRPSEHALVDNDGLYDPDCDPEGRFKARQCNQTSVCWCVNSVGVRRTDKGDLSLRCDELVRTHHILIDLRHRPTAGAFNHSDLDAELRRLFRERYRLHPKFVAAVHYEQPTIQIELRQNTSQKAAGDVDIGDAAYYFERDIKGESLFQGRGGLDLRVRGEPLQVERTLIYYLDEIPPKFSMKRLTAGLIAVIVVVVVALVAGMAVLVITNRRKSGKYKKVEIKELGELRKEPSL", "experiment": "cell binding on TROP-2-positive PC-3 human prostate carcinoma cells, three separate occasions"}, "[3]": {"target": "CD74 (invariant chain, Ii), human, on tumor cell lines (human) (UniProt P04233)", "sequence (P04233 whole entry, change not shown)": "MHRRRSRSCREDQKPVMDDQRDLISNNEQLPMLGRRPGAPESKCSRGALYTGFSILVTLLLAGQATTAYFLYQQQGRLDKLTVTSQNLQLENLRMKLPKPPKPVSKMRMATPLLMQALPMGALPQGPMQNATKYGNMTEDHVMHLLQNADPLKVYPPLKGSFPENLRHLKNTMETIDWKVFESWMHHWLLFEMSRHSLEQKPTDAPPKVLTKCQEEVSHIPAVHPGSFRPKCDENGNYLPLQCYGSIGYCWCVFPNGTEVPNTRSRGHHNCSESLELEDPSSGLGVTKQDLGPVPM", "experiment": "flow cytometry, surface only, Hs746T cells"}, "[4]": {"target": "CD74 (invariant chain, Ii), human, on tumor cell lines (human) (UniProt P04233)", "experiment": "flow cytometry, surface only, Hep-G2 cells"}, "[5]": {"target": "CD74 (invariant chain, Ii), human, on tumor cell lines (human) (UniProt P04233)", "experiment": "flow cytometry, surface and cytoplasmic (permeabilized), Hs746T cells"}, "[6]": {"target": "CD74 (invariant chain, Ii), human, on tumor cell lines (human) (UniProt P04233)", "experiment": "flow cytometry, surface and cytoplasmic (permeabilized), NCI-N87 cells"}, "[7]": {"target": "CD74 (invariant chain, Ii), human, on tumor cell lines (human) (UniProt P04233)", "experiment": "flow cytometry, surface and cytoplasmic (permeabilized), Capan-1 cells"}, "[8]": {"target": "CD74 (invariant chain, Ii), human, on tumor cell lines (human) (UniProt P04233)", "experiment": "flow cytometry, surface and cytoplasmic (permeabilized), HuH-7 cells"}, "[9]": {"target": "CD74 (invariant chain, Ii), human, on tumor cell lines (human) (UniProt P04233)", "experiment": "flow cytometry, surface only, Raji cells"}, "[10]": {"target": "CD74 (invariant chain, Ii), human, on tumor cell lines (human) (UniProt P04233)", "experiment": "flow cytometry, surface only, A-375 cells"}, "[11]": {"target": "CD74 (invariant chain, Ii), human, on tumor cell lines (human) (UniProt P04233)", "experiment": "flow cytometry, surface only, NCI-N87 cells"}, "[12]": {"target": "CD74 (invariant chain, Ii), human, on tumor cell lines (human) (UniProt P04233)", "experiment": "flow cytometry, surface and cytoplasmic (permeabilized), Hep-G2 cells"}, "[13]": {"target": "CD74 (invariant chain, Ii), human, on tumor cell lines (human) (UniProt P04233)", "experiment": "flow cytometry, surface only, HuH-7 cells"}, "[14]": {"target": "CD74 (invariant chain, Ii), human, on tumor cell lines (human) (UniProt P04233)", "experiment": "flow cytometry, surface only, Capan-1 cells"}, "[15]": {"target": "CD74 (invariant chain, Ii), human, on tumor cell lines (human) (UniProt P04233)", "experiment": "cell binding to antigen-positive cells (cell line not given)"}, "[16]": {"target": "CD74 (invariant chain, Ii), human, on tumor cell lines (human) (UniProt P04233)", "experiment": "flow cytometry, surface and cytoplasmic (permeabilized), Raji cells"}, "[17]": {"target": "CD74 (invariant chain, Ii), human, on tumor cell lines (human) (UniProt P04233)", "experiment": "flow cytometry, surface and cytoplasmic (permeabilized), A-375 cells"}}}
{"substance": "IMMU-132 (hRS7-CL2A-SN-38 antibody-drug conjugate)", "values": [{"measurement": "Kd", "setting": "[1]", "result": 92.4, "unit": "nM"}, {"measurement": "Kd", "setting": "[2]", "result": 0.658, "unit": "nM"}]}
{"substance": "Milatuzumab (hLL1, humanized anti-CD74 IgG1 monoclonal antibody, unconjugated)", "values": [{"measurement": "MFI", "setting": "[3]", "result": 17, "unit": "MFI"}, {"measurement": "MFI Ratio hLL1:bkgd", "setting": "[3]", "result": 2.1}, {"measurement": "MFI", "setting": "[4]", "result": 9, "unit": "MFI"}, {"measurement": "MFI Ratio hLL1:bkgd", "setting": "[4]", "result": 1.5}, {"measurement": "MFI", "setting": "[5]", "result": 144, "unit": "MFI"}, {"measurement": "MFI Ratio hLL1:bkgd", "setting": "[5]", "result": 28.8}, {"measurement": "MFI", "setting": "[6]", "result": 220, "unit": "MFI"}, {"measurement": "MFI Ratio hLL1:bkgd", "setting": "[6]", "result": 36.7}, {"measurement": "MFI", "setting": "[7]", "result": 248, "unit": "MFI"}, {"measurement": "MFI Ratio hLL1:bkgd", "setting": "[7]", "result": 49.6}, {"measurement": "MFI", "setting": "[8]", "result": 114, "unit": "MFI"}, {"measurement": "MFI Ratio hLL1:bkgd", "setting": "[8]", "result": 28.5}, {"measurement": "MFI", "setting": "[9]", "result": 59, "unit": "MFI"}, {"measurement": "MFI Ratio hLL1:bkgd", "setting": "[9]", "result": 19.6}, {"measurement": "MFI", "setting": "[10]", "result": 16, "unit": "MFI"}, {"measurement": "MFI Ratio hLL1:bkgd", "setting": "[10]", "result": 5.3}, {"measurement": "MFI", "setting": "[11]", "result": 5, "unit": "MFI"}, {"measurement": "MFI Ratio hLL1:bkgd", "setting": "[11]", "result": 1.3}, {"measurement": "MFI", "setting": "[12]", "result": 156, "unit": "MFI"}, {"measurement": "MFI Ratio hLL1:bkgd", "setting": "[12]", "result": 31.2}, {"measurement": "MFI", "setting": "[13]", "result": 8, "unit": "MFI"}, {"measurement": "MFI Ratio hLL1:bkgd", "setting": "[13]", "result": 1.6}, {"measurement": "MFI", "setting": "[14]", "result": 22, "unit": "MFI"}, {"measurement": "MFI Ratio hLL1:bkgd", "setting": "[14]", "result": 1.8}, {"measurement": "Kd", "setting": "[15]", "result": 0.77, "unit": "nM"}, {"measurement": "MFI", "setting": "[16]", "result": 143, "unit": "MFI"}, {"measurement": "MFI Ratio hLL1:bkgd", "setting": "[16]", "result": 28.6}, {"measurement": "MFI", "setting": "[17]", "result": 185, "unit": "MFI"}, {"measurement": "MFI Ratio hLL1:bkgd", "setting": "[17]", "result": 30.8}]}
{"substance": "milatuzumab-CL2A-SN-38 conjugate (antibody)", "values": [{"measurement": "Kd", "setting": "[15]", "result": 0.59, "unit": "nM"}]}
{"substance": "milatuzumab-CL2E-SN-38 conjugate (antibody)", "values": [{"measurement": "Kd", "setting": "[15]", "result": 0.8, "unit": "nM"}]}
